Data from US9120851B2, “Human antibodies to human angiopoietin-like protein 4” (Regeneron Pharmaceuticals, Inc., priority 2009, dated 2015).

Columns and labels:
humanized ANGPTL4 mice = test: Serum TG, H4H268P2 and fenofibrate alone or in combination; format: in vivo, mouse
Method: The effects of the anti-ANGPTL4 antibody H4H268P2 and TG-reducing drug fenofibrate, each alone or in combination, on serum TG levels were evaluated in humanized ANGPTL4 mice. The mice were pre-bled 7 days before the experiment after 4 hours of fasting and put into 4 groups of six mice each. Groups 2 and 4 were administered with H4H268P2 at 10 mg/kg by subcutaneous injection on day 0 and groups 1 (control group) and 2 were placed on regular chow diet. Groups 3 and 4 received chow diet supplemented with 0.05% (w/w) of fenofibrate (the dosage level was determined experimentally in a pilot study). Serum was collected from a terminal bleed on day 7 after H4H268P2 and/or fenofibrate administration (after 4 hours of fasting) and analyzed by ADVIA® 1800 Chemistry System (Siemens).

C57BL/6 mice = test: In vivo effect of hANGPTL4-mFc on plasma lipid levels; set-up: species or system mouse
Method: hANGPTL4 was administered intravenously to C57BL/6 mice to determine the biological effect of hANGPTL4 on plasma lipid levels. Briefly, C57BL/6 mice were put into four groups of five animals and each group was administered with different amount of hANGPTL4-mFc protein (SEQ ID NO:480): 25 μg, 50 μg, 100 μg and 300 μg, per mouse. A control group received injections of PBS. hANGPTL4-mFc protein and PBS were administered by intravenous injection (i.v.) via tail vein. Mice were bled at 15 min, 30 min, 60 min and 120 min after delivery of hANGPTL4-mFc or PBS and plasma lipid levels were determined by ADVIA® 1650 Chemistry System (Siemens). Measurements of triglycerides, total cholesterol, low density lipoprotein (LDL), nonesterified fatty acids (NEFA-C) and high density lipoprotein (HDL) were determined for each dose group. […] Thus, the 25 μg dose of hANGPTL4-mFc was selected as a possible minimum dosage for analysis of inhibition of ANGPTL4-induced increase in serum triglyceride levels by selected anti-hANGPTL4 antibodies as described below.

hANGPTL4(26-148)-mFc [1] = biological target: T1, hANGPTL4(26-148)-mFc (Homo sapiens, UniProt Q9BY76); test: BIACORE, full mAb or Fab over anti-mFc captured hANGPTL4(26-148)-mFc; format: binding
T1 construct: amino acid residues 26-148 of human ANGPTL4 fused in-line to mouse IgG2a (hANGPTL4-mFc)
Method: (§1) Briefly, various concentrations (3.125 nM-100 nM) of anti-hANGPTL4 antibodies (i.e., H1H268 Fab, entire H1H268 mAb, H1H284 Fab, and entire H1H284 mAb) were injected over a low density anti-mFc captured hANGPTL4(26-148)-mFc (˜68±4 RU) surface, or the surface of amino-coupled hANGPTL4(26-406)-His (R&D Systems) (450 RU) or amino-coupled cynomolgus monkey N-terminal region (amino acid residues 1-130 of SEQ ID NO:490) expressed with an C-terminal hexa-histidine tag (MfANGPTL4(1-130)-His) (1,028 RU). Kinetic analysis was performed to measure ka and kd, and KD values and half-life of antigen/antibody complex dissociation were calculated. The results are shown in Table 4 (H1H268P) and Table 5 (H1H284P).

MfANGPTL4(1-130)-His = test: BIACORE, full mAb or Fab over amino-coupled MfANGPTL4(1-130)-His; format: binding, cynomolgus monkey; conditions: for Response bound at 50 nM mAb or Fab: amino-coupled 1,028 RU
Method: as §1

hANGPTL4(26-406)-His = biological target: T2, hANGPTL4(26-406)-His (Homo sapiens, UniProt Q9BY76); test: BIACORE, full mAb or Fab over amino-coupled hANGPTL4(26-406)-His; format: binding; conditions: for RU bound at 50 nM mAb or Fab: amino-coupled 450 RU
T2 construct: purchased R&D Systems
T2 sequence (Q9BY76 26-406): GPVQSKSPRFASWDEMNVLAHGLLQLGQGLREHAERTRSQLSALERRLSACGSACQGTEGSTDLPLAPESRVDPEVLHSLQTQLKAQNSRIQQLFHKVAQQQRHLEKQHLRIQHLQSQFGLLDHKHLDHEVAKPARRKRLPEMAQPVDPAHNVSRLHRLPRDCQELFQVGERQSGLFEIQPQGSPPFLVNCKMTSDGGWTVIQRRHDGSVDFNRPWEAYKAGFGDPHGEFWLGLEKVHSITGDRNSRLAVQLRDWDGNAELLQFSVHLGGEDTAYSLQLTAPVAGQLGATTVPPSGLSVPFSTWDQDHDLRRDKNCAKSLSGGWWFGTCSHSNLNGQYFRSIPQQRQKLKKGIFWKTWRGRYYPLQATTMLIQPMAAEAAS
Method: as §1

hANGPTL4(26-148)-mFc [2] = biological target: T1, hANGPTL4(26-148)-mFc; test: BIACORE, full mAb or Fab over anti-mFc captured hANGPTL4(26-148)-mFc; format: binding; remark: listed apart in the source
bovine LPL = biological target: T3, bovine LPL (Bos taurus, UniProt P11151); test: Dose-response of ANGPTL4 protein in the LPL assay; format: biochemical; conditions: full dose-response of ANGPTL4 protein, determined for each experiment
T3 sequence (P11151 29-478): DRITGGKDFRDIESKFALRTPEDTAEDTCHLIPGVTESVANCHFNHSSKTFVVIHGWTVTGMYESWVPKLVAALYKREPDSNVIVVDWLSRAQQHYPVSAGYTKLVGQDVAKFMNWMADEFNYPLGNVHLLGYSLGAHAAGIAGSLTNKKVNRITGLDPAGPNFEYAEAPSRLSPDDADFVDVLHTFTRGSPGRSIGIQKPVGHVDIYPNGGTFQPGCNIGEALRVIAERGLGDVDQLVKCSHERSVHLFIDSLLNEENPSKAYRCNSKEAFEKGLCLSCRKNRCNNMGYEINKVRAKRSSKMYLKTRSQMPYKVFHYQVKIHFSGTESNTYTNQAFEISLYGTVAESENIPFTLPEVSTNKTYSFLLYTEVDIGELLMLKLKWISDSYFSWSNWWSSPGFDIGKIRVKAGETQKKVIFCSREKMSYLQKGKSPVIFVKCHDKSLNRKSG
Method: Briefly, 2 nM bovine LPL, 0.25 μM human ApoCII (a cofactor of LPL), 2 mg/mL BSA and 1.6 mM CaCl2, were premixed in a 96-well assay plate. Either hANGPTL4-His or hANGPTL4-mFc protein was added to the Apo/LPL mixture to a final concentration of 10 nM and 2 nM, respectively. The Apo/LPL/ANGPTL4 protein mixtures were then added together with serially diluted anti-hANGPTL4 antibodies with a starting concentration of 300 nM (for inhibition of hANGPTL4-His) or 100 nM (for inhibition of hANGPTL4-mFc) and incubated at room temperature for 30 minutes (final volume 50 μl). Following the incubation, 200 μl of reconstituted lipase substrate, 1-trinitrophenyl-amino-dodecanoyl-2-pyrendecanoyl-3-0-hexadecyl-sn-glycerol (LS-A, Progen), was added to the antibody mixture and incubated at 37° C. for two hours. Fluorescence was then measured at 342 nm/400 nm (excitation/emission) using a FlexStation® 3 Microplate Reader (Molecular Devices, CA). Fluorescence is directly proportional to LPL activity. Control I: a rabbit polyclonal antibody specific for hANGPTL4 (BioVendor). […] NT: not tested. […]

[3] = pH 5.75, 25° C., antigen captured 27 ± 0.6 RU
[4] = pH 7.2, 25° C., antigen captured 35 ± 1.9 RU

Row | Molecule | ka (hANGPTL4(26-148)-mFc [1]; pH 5.75, 25° C.) [M⁻¹ s⁻¹] | kd (hANGPTL4(26-148)-mFc [1]; pH 5.75, 25° C.) [s⁻¹] | ka (hANGPTL4(26-148)-mFc [1]; pH 7.2, 25° C.) [M⁻¹ s⁻¹] | kd (hANGPTL4(26-148)-mFc [1]; pH 7.2, 25° C.) [s⁻¹] | ka (MfANGPTL4(1-130)-His; pH 5.75, 25° C.) [M⁻¹ s⁻¹] | kd (MfANGPTL4(1-130)-His; pH 5.75, 25° C.) [s⁻¹] | Response bound at 50 nM mAb or Fab (MfANGPTL4(1-130)-His; pH 5.75, 25° C.) | ka (MfANGPTL4(1-130)-His; pH 7.2, 25° C.) [M⁻¹ s⁻¹] | kd (MfANGPTL4(1-130)-His; pH 7.2, 25° C.) [s⁻¹] | Response bound at 50 nM mAb or Fab (MfANGPTL4(1-130)-His; pH 7.2, 25° C.) | ka (hANGPTL4(26-406)-His; pH 5.75, 25° C.) [M⁻¹ s⁻¹] | kd (hANGPTL4(26-406)-His; pH 5.75, 25° C.) [s⁻¹] | RU bound at 50 nM mAb or Fab (hANGPTL4(26-406)-His; pH 5.75, 25° C.) | ka (hANGPTL4(26-406)-His; pH 7.2, 25° C.) [M⁻¹ s⁻¹] | kd (hANGPTL4(26-406)-His; pH 7.2, 25° C.) [s⁻¹] | RU bound at 50 nM mAb or Fab (hANGPTL4(26-406)-His; pH 7.2, 25° C.) | Response bound at 50 nM mAb or Fab (RU) (hANGPTL4(26-148)-mFc [2]; [3]) | Response bound at 50 nM mAb or Fab (RU) (hANGPTL4(26-148)-mFc [2]; [4]) | other results
1 | CC(C)OC(=O)C(C)(C)Oc1ccc(C(=O)c2ccc(Cl)cc2)cc1 [fenofibrate] |  |  |  |  |  |  |  |  |  |  |  |  |  |  |  |  |  |  | TG levels reduced (mean) compared to control group on chow diet (humanized ANGPTL4 mice; day 7, H4H268P2 10 mg/kg s.c. day 0, fenofibrate 0.05% (w/w) in chow): ~25%; liver enlargement (liver weight/body weight) compared to control chow diet (humanized ANGPTL4 mice; mice that consumed fenofibrate for 7 days (groups 3 and 4)): 1.8 times
2 | hANGPTL4(26-148)-mFc: amino acid residues 26-148 of human ANGPTL4 fused in-line to mouse IgG2a (SEQ ID NO:480) (protein) GPVQSKSPRFASWDEMNVLAHGLLQLGQGLREHAERTRSQLSALERRLSACGSACQGTEGSTDLPLAPESRVDPEVLHSLQTQLKAQNSRIQQLFHKVAQQQRHLEKQHLRIQHLQSQFGLLDPGSLEFALERNSGEPRGPTIKPCPPCKCPAPNLLGGPSVFIFPPKIKDVLMISLSPIVTCVVVDVSEDDPDVQISWFVNNVEVHTAQTQTHREDYNSTLRVVSALPIQHQDWMSGKEFKCKVNNKDLPAPIERTISKPKGSVRAPQVYVLPPPEEEMTKKQVTLTCMVTDFMPEDIYVEWTNNGKTELNYKNTEPVLDSDGSYFMYSKLRVEKKNWVERNSYSCSVVHEGLHNHHTTKSFSRTPGK |  |  |  |  |  |  |  |  |  |  |  |  |  |  |  |  |  |  | increase of circulating triglycerides as compared to control mice (PBS) (C57BL/6 mice; 25 μg/mouse i.v., 30 minutes post injection): greater than two-fold; total cholesterol, LDL, NEFA-C and HDL across dose groups (C57BL/6 mice; 25, 50, 100, 300 μg per mouse i.v., each time point post-injection): not significantly different
3 | H1H268P Fab: Fab fragment of H1H268P prepared by papain digestion (antibody, V domains shown) VH: QVQLQESGAGLLKPSETLSLTCTVYGGSFSIHHWTWIRHPPGKGLEWIGEINHRGSTNYNPSLKSRVTISIDTSKNQFSLKLSAVTAADTAVYYCARGLRFLDWLSSYFDYWGQGTLVTVSS VL: DIQMTQSPSSLSASVGDRVTITCRASQGISDYLAWYQQKPGKVPNLLIYAASALQSGVPSRFSGSGSGTDFTLTISSLQPEDVATYYCQNYNTAPLTFGGGTKVEIK | 174000 | 0.00304 | 300000 | 0.000601 | 312000 | 0.00432 | 178 | 267000 | 0.00171 | 167 | 444000 | 0.00657 | 10 | 726000 | 0.0118 | 13 | 20 | 10 | 
4 | H1H284P Fab: Fab fragment of H1H284P prepared by papain digestion (antibody, V domains shown) VH: QVQLVESGGGVVQPGRSLRLSCAASGFTFSSYGMHWVRQAPGKGLEWMAVISFDGGNKNNADSVKGRFTISRDNSKNTLYLQMNSLRAEDTAVYYCAKEGDRSGHPYFYYYGLDVWGQGTTVTVS VL: DIQLTQSPSFLSASVGDRVTITCWASQGISSYLAWYQQKPGKAPKLLIYAASTLQSGVPSRFSGSGSETEFTLTISSLQPEDFATYYCQQLHSYPLTFGGGTKVEIK | 472000 | 0.0016 | 245000 | 0.000202 | 724000 | 0.00619 | 255 | 310000 | 0.00313 | 214 | 1.21e+06 | 0.00173 | 33 | 1.11e+06 | 0.000344 | 32 | 56 | 29 | 
5 | His-MfANGPTL4 (26-148): cynomolgus monkey ANGPTL4 N-terminal region (residues 26-148) with an N-terminal hexa-histidine tag (SEQ ID NO:488) (protein) MHHHHHHGPVQSKSPRFASWDEMNVLAHGLLQLGQGLREHAERTRSQLNALERRLSACGSACQGTEGSTALPLAPESRVDPEVLHSLQTQLKAQNSRIQQLFHKVAQQQRHLEKQHLRIQRLQSQVGLLD |  |  |  |  |  |  |  |  |  |  |  |  |  |  |  |  |  |  | EC50 (bovine LPL): 3.89 nM
